Measured values reported in patent US20200181261A1 (Bayer, published 2020).
Changes are numbered by the printed parent chain. Several values for one entry are separate records, joined by “and”; a condition that tells them apart may be missing. Equal values may be shown once.

T1: human CEACAM19, full-length, on transfected HeLa cells (human, UniProt Q7Z692 33-300)
T1 construct: also called TPP-4186; HeLa human CEACAM19
T1 sequence: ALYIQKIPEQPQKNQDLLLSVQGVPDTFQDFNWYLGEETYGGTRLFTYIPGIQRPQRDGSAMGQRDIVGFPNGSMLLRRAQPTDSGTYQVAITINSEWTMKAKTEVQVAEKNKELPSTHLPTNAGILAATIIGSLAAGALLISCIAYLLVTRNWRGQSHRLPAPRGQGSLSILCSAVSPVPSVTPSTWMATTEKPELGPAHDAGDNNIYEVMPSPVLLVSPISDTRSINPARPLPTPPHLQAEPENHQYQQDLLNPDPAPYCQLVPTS

T2: human CEACAM1, extracellular (mature form), R&D Systems 2244-CM (human, UniProt P13688 35-428)
T2 construct: used biotinylated in some assays; also called TPP-1437; hC1
T2 sequence: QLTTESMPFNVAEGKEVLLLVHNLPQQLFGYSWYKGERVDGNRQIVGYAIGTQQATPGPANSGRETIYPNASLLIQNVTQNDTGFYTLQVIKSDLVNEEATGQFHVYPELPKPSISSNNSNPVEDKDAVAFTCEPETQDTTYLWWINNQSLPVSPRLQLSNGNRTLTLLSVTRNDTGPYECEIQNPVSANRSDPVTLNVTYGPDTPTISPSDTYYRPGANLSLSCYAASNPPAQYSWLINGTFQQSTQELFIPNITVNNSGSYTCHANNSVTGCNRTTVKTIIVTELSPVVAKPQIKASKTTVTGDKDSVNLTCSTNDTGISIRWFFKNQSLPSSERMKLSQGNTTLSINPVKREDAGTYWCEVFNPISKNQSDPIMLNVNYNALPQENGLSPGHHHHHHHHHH

T3: human CEACAM6, full-length, on cells (human, UniProt P40199 35-320)
T3 sequence: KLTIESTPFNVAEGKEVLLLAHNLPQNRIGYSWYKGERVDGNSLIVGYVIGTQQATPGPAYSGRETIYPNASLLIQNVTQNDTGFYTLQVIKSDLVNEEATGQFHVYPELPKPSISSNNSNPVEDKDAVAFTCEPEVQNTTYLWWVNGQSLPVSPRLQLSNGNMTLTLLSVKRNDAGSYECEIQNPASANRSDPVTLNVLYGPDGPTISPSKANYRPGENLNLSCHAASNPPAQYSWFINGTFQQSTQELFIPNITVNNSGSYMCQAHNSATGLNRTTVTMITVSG

T4: Macaca fascicularis CEACAM6-Domain 1, obtained by Factor Xa cleavage of TPP-2452 (Macaca fascicularis)
T4 construct: also called APP-325; cynoC6-D1
T4 chain: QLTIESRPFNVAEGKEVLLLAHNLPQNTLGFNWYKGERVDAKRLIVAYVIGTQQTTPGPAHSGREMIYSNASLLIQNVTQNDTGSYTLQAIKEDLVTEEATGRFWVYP

B1: TPP-3821 (antibody, human IgG2, kappa, V domains shown)
VH: QVTLRESGPALVKPTQTLTLTCTFSGFSLSTYGIGVGWIRQPPGKALEWLAHIWWNDNKYYSTSLKTRLTISKDTSKNQVVLTMTNMDPVDTATYYCARISLPYFDYWGQGTLVTVSS
VL: DIQLTQSPSFLSASVGDRVTITCKASQNVGTAVAWYQQKPGKAPKLLIYSASNRYTGVPSRFSGSGSGTEFTLTISSLQPEDFATYYCQQYNNYPLTFGGGTKVEIKR
notes: humanized from TPP-3187, human IgG2; also called 3187HU2-hIgG2Kappa
B2: TPP-3310 (antibody, human IgG2, kappa)
heavy: QVTLRESGPALVKPTQTLTLTCTFSGFSLSTYGIGVGWIRQPPGKALEWLAHIWWNDNKYYSTSLKTRLTISKDTSKNQVVLTMTNMDPVDTATYYCARISLPYFDYWGQGTTLTVSSASTKGPSVFPLAPCSRSTSESTAALGCLVKDYFPEPVTVSWNSGALTSGVHTFPAVLQSSGLYSLSSVVTVPSSNFGTQTYTCNVDHKPSNTKVDKTVERKCCVECPPCPAPPVAGPSVFLFPPKPKDTLMISRTPEVTCVVVDVSHEDPEVQFNWYVDGVEVHNAKTKPREEQFNSTFRVVSVLTVVHQDWLNGKEYKCKVSNKGLPAPIEKTISKTKGQPREPQVYTLPPSREEMTKNQVSLTCLVKGFYPSDIAVEWESNGQPENNYKTTPPMLDSDGSFFLYSKLTVDKSRWQQGNVFSCSVMHEALHNHYTQKSLSLSPG
light: DIQLTQSPSFLSASVGDRVTITCKASQNVGTAVAWYQQKPGKAPKLLIYSASNRYTGVPSRFSGSGSGTEFTLTISSLQPEDFATYYCQQYSSYPLTFGGGTKVEIKRTVAAPSVFIFPPSDEQLKSGTASVVCLLNNFYPREAKVQWKVDNALQSGNSQESVTEQDSKDSTYSLSSTLTLSKADYEKHKVYACEVTHQGLSSPVTKSFNRGEC
notes: humanized from TPP-2971, human IgG2; also called TPP-2971HU1-hIgG2Kappa
B3: TPP-3820 (antibody, human IgG2, kappa, V domains shown)
VH: B1 VH with S30T, A46G
VL: B1 VL
notes: humanized from TPP-3187, human IgG2; also called 3187HU1-hIgG2Kappa
B4: TPP-3707 (antibody, human IgG2, kappa, V domains shown)
VH: EVQLVESGGGLVQPGGSLRLSCAASGFTFSLYQMHWVRQAPGKGLEWVSWISFSGGNTGYADSVKGRFTISRDNSKNTLYLQMNSLRAEDTAVYYCARATGYSSPWYLDPWGQGTLVTVSS
VL: DIQMTQSPSSLSASVGDRVTITCQASHEIDNYLNWYQQKPGKAPKLLIYDAYWSKTGVPSRFSGSGSGTDFTLTISSLQPEDIATYYCQGYDDLSVTFGGGTKVDIKR
notes: also called 090E-M007-A09-Mat2-hIgG2-hIgG2Kappa
B5: TPP-3714 (antibody, human IgG2, kappa)
heavy: B2 heavy with T113L, L114V
light: B2 light
notes: humanized from TPP-2971, human IgG2; also called TPP-2971HU2-hIgG2Kappa
B6: TPP-3705 (antibody, human IgG2, kappa, V domains shown)
VH: B4 VH
VL: B4 VL with S54L
notes: also called 090E-M007-A09-Mat1-hIgG2-hIgG2Kappa
B7: TPP-2971 (antibody, mouse IgG1, V domains shown)
VH: QVTLKESGPGILQPSQTLSLTCSFSGFSLSTYGIGVGWIRQPSGKDLEWLAHIWWNDNKYYNTALKSRLTISKDTSNNQVFLKIASVDTADTATYYCARISLPYFDYWGQGTTLTVSS
VL: DIVMTQSQKFMSTSVGDRVSITCKASQNVGTAVAWYQQKPGQSPKLLIYSASNRYTGVPDRFTGSGSGTDFTLTISNMQSEDLADYFCQQYSSYPLTFGAGTKLELK
notes: murine hybridoma antibody, mouse IgG1; also called 792.15H12C9
B8: TPP-3187 (antibody, mouse IgG1, V domains shown)
VH: B7 VH with S30T, D46G
VL: B7 VL with S92N, S93N
notes: murine hybridoma antibody, mouse IgG1; also called 792.15C4F4

Molecular target: T1, human CEACAM19, full-length, on …
Assay: FACS, transfected HeLa cells
Summary of the method: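 Antibody binding to transfected HeLa cells was measured by FACS on a Canto II or FACS Array instrument. For half maximal binding (EC₅₀), primary antibodies were titrated from 0.1 nM to 100 nM. Median fluorescence intensity was plotted against log concentration, and curves were fitted in Graph Pad prism. Cells had been released with EDTA dissociation buffer and stained at 4° C.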

Row | binding result | Binder
1 | no binding (tested: 5 µg/ml) | B1
2 | no binding (tested: 5 µg/ml) | B2
3 | no binding (tested: 5 µg/ml) | B3
4 | no binding (tested: 5 µg/ml) | B4
5 | no binding (tested: 5 µg/ml) | B5

Molecular target: T2, human CEACAM1, extracellular (mature …)
Assay: ELISA, antibody captured, biotinylated antigen titrated; binding ELISA, biotinylated CEACAM1 titrated up to 2000 ng/ml; ambiguous fit

Row | EC50 | Binder
6 | > 2 µg/mL | B6
7 | > 2 µg/mL | B4

Molecular target: T3, human CEACAM6, full-length, on cells
Assay: cell-based or functional assay

Row | Binder | IC50 of the dose dependent effect on TIL mediated killing of HCC2935 cells (xCELLigence)
8 | B2 | 0.62 µg/mL and 0.21 µg/mL

Molecular target: T4, Macaca fascicularis CEACAM6-Domain 1, …
Assay: SPR, antibody captured, antigen as analyte

Row | Kd | Binder
9 | 30 nM | B7
10 | 42 nM | B8

Molecular target: T2, human CEACAM1, extracellular (mature …)
Assay: SPR, antibody captured, antigen as analyte

Row | binding result | Binder
11 | no binding (tested: 200 nM) | B1
12 | no binding (tested: 200 nM) | B2
13 | no binding (tested: 200 nM) | B3
14 | no binding (tested: 200 nM) | B5
15 | no binding (tested: 200 nM) | B7
